Measurements: US20150203577A1 (Chugai, published 2015)

T1: mouse FcγRIII (mouse, UniProt P08508 31-215)
T1 construct: Extracellular domain with C-terminal His tag, made in FreeStyle 293 cells; also called mFcγRIII; mFcgRIII
T1 chain: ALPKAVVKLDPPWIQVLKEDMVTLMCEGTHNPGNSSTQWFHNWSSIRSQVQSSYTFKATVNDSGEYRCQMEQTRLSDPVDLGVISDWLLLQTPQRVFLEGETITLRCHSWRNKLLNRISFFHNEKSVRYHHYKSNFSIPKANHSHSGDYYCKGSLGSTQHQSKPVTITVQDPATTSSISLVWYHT

T2: mouse FcγRII (mouse, UniProt P08101 30-210)
T2 construct: Extracellular domain with C-terminal His tag, made in FreeStyle 293 cells; also called mFcγRII; mFcgRII
T2 sequence: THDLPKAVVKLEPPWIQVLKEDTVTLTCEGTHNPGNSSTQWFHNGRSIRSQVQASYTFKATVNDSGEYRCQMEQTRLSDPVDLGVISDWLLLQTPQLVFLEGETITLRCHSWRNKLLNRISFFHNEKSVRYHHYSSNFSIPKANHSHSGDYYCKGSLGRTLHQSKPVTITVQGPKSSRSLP


Assays:
[1] = target: T1, mouse FcγRIII; test: SPR (Biacore), antibody captured on Protein L
Procedure: (§1) Each altered antibody was analyzed for its interaction with each Fcγ receptor prepared above using Biacore T100 (GE Healthcare Japan Corp.), Biacore T200 (GE Healthcare Japan Corp.), Biacore A100, or Biacore 4000. The running buffer used was HBS-EP+ (GE Healthcare Japan Corp.). The assay temperature was set to 25° C. The sensor chips used were chips prepared by immobilizing Protein L (ACTIGEN or BioVision) onto Series S Sensor Chip CM5 (GE Healthcare Japan Corp.) or Series S Sensor Chip CM4 (GE Healthcare Japan Corp.) by the amine coupling method.
(§2) In order to calculate the KD value of each altered antibody for FcγR, kinetic analysis was conducted according to the following method: first, the antibody of interest was captured onto any of these chips and allowed to interact with mFcγR diluted with a running buffer. For the obtained sensorgram, the assay results were globally fit into the 1:1 Langmuir binding model using Biacore Evaluation Software to calculate an association rate constant ka (L/mol/s) and a dissociation rate constant kd (1/s). From these values, the dissociation constant KD (mol/L) was calculated.

[2] = target: T2, mouse FcγRII; test: SPR (Biacore), antibody captured on Protein L
Procedure: as §1, §2

[3] = target: T1, mouse FcγRIII; test: SPR (Biacore), KD of H237-mIgG1/MRAL-k0 (same run) / KD of variant
Procedure: as §1, §2

[4] = target: T2, mouse FcγRII; test: as above
Procedure: as §1, §2

Binder	Kd [1]	Kd [2]	relative mFcγRIII-binding activity (mIgG1 = 1) [3]	relative mFcγRII-binding activity (mIgG1 = 1) [4]
H237-MB599/MRAL-k0 (antibody, mouse IgG1, kappa, copies: 2 + 2) heavy: QVQLQESGPGLVKPSETLSLTCAVSGHSISHDHAWSWVRQPPGEGLEWIGFISYSGITNYNPSLQGRVTISRDNSKNTLYLQMNSLRAEDTAVYYCARSLARTTAMDYWGEGTLVTVSSAKTTPPSVYPLAPGSAAQTNSMVTLGCLVKGYFPEPVTVTWNSGSLSSGVHTFPAVLQSDLYTLSSSVTVPSSTWPSETVTCNVAHPASSTKVDKKIVPRDCGCKPCICEVPEESFVFIFPPKPKDVLTITLTPKVTCVVVDISKDDPEVQFSWFVDDVEVHTAQTQPREEQFNSTFRSVSELPIMHQDWLNGKEFKCRVNSAAFPAPIEKTISKTKGRPKAPQVYTIPPPKEQMAKDKVSLTCMITDFFPEDITVEWQWNGQPAENYKNTQPIMDTDGSYFVYSKLNVQKSNWEAGNTFTCSVLHEGLHNHHTEKSLSHSPGK light: not shown	3020 nM	306 nM	0.11 fold	0.7 fold
H237-MB611/MRAL-k0 (antibody, mouse IgG1, kappa, copies: 2 + 2) heavy: QVQLQESGPGLVKPSETLSLTCAVSGHSISHDHAWSWVRQPPGEGLEWIGFISYSGITNYNPSLQGRVTISRDNSKNTLYLQMNSLRAEDTAVYYCARSLARTTAMDYWGEGTLVTVSSAKTTPPSVYPLAPGSAAQTNSMVTLGCLVKGYFPEPVTVTWNSGSLSSGVHTFPAVLQSDLYTLSSSVTVPSSTWPSETVTCNVAHPASSTKVDKKIVPRDCGCKPCICTVPEEDEVFIFPPKPKDVLTITLTPKVTCVVVDISKDDPEVQFSWFVDDVEVHTAQTQPREEQFNSTFRSVSELPIMHQDWLNGKEFKCRVNSAAFPAPIEKTISKTKGRPKAPQVYTIPPPKEQMAKDKVSLTCMITDFFPEDITVEWQWNGQPAENYKNTQPIMDTDGSYFVYSKLNVQKSNWEAGNTFTCSVLHEGLHNHHTEKSLSHSPGK light: not shown	3420 nM	192 nM	0.09 fold	1.11 fold
H237-MB624/MRAL-k0 (antibody, mouse IgG1, kappa, copies: 2 + 2) heavy: QVQLQESGPGLVKPSETLSLTCAVSGHSISHDHAWSWVRQPPGEGLEWIGFISYSGITNYNPSLQGRVTISRDNSKNTLYLQMNSLRAEDTAVYYCARSLARTTAMDYWGEGTLVTVSSAKTTPPSVYPLAPGSAAQTNSMVTLGCLVKGYFPEPVTVTWNSGSLSSGVHTFPAVLQSDLYTLSSSVTVPSSTWPSETVTCNVAHPASSTKVDKKIVPRDCGCKPCICEDYEVELVFIFPPKPKDVLTITLTPKVTCVVVDISKDDPEVQFSWFVDDVEVHTAQTQPREEQFNSTFRSVSELPIMHQDWLNGKEFKCRVNSAAFPAPIEKTISKTKGRPKAPQVYTIPPPKEQMAKDKVSLTCMITDFFPEDITVEWQWNGQPAENYKNTQPIMDTDGSYFVYSKLNVQKSNWEAGNTFTCSVLHEGLHNHHTEKSLSHSPGK light: not shown	2870 nM	263 nM	0.11 fold	0.88 fold
H237-MB625/MRAL-k0 (antibody, mouse IgG1, kappa, copies: 2 + 2) heavy: QVQLQESGPGLVKPSETLSLTCAVSGHSISHDHAWSWVRQPPGEGLEWIGFISYSGITNYNPSLQGRVTISRDNSKNTLYLQMNSLRAEDTAVYYCARSLARTTAMDYWGEGTLVTVSSAKTTPPSVYPLAPGSAAQTNSMVTLGCLVKGYFPEPVTVTWNSGSLSSGVHTFPAVLQSDLYTLSSSVTVPSSTWPSETVTCNVAHPASSTKVDKKIVPRDCGCKPCICENYEVELVFIFPPKPKDVLTITLTPKVTCVVVDISKDDPEVQFSWFVDDVEVHTAQTQPREEQFNSTFRSVSELPIMHQDWLNGKEFKCRVNSAAFPAPIEKTISKTKGRPKAPQVYTIPPPKEQMAKDKVSLTCMITDFFPEDITVEWQWNGQPAENYKNTQPIMDTDGSYFVYSKLNVQKSNWEAGNTFTCSVLHEGLHNHHTEKSLSHSPGK light: not shown	2310 nM	312 nM	0.14 fold	0.74 fold
H237-MB623/MRAL-k0 (antibody, mouse IgG1, kappa, copies: 2 + 2) heavy: QVQLQESGPGLVKPSETLSLTCAVSGHSISHDHAWSWVRQPPGEGLEWIGFISYSGITNYNPSLQGRVTISRDNSKNTLYLQMNSLRAEDTAVYYCARSLARTTAMDYWGEGTLVTVSSAKTTPPSVYPLAPGSAAQTNSMVTLGCLVKGYFPEPVTVTWNSGSLSSGVHTFPAVLQSDLYTLSSSVTVPSSTWPSETVTCNVAHPASSTKVDKKIVPRDCGCKPCICEAYEVELVFIFPPKPKDVLTITLTPKVTCVVVDISKDDPEVQFSWFVDDVEVHTAQTQPREEQFNSTFRSVSELPIMHQDWLNGKEFKCRVNSAAFPAPIEKTISKTKGRPKAPQVYTIPPPKEQMAKDKVSLTCMITDFFPEDITVEWQWNGQPAENYKNTQPIMDTDGSYFVYSKLNVQKSNWEAGNTFTCSVLHEGLHNHHTEKSLSHSPGK light: not shown	3170 nM	395 nM	0.1 fold	0.59 fold
H237-MB618/MRAL-k0 (antibody, mouse IgG1, kappa, copies: 2 + 2) heavy: QVQLQESGPGLVKPSETLSLTCAVSGHSISHDHAWSWVRQPPGEGLEWIGFISYSGITNYNPSLQGRVTISRDNSKNTLYLQMNSLRAEDTAVYYCARSLARTTAMDYWGEGTLVTVSSAKTTPPSVYPLAPGSAAQTNSMVTLGCLVKGYFPEPVTVTWNSGSLSSGVHTFPAVLQSDLYTLSSSVTVPSSTWPSETVTCNVAHPASSTKVDKKIVPRDCGCKPCICTVPEEDDVFIFPPKPKDVLTITLTPKVTCVVVDISKDDPEVQFSWFVDDVEVHTAQTQPREEQFNSTFRSVSELPIMHQDWLNGKEFKCRVNSAAFPAPIEKTISKTKGRPKAPQVYTIPPPKEQMAKDKVSLTCMITDFFPEDITVEWQWNGQPAENYKNTQPIMDTDGSYFVYSKLNVQKSNWEAGNTFTCSVLHEGLHNHHTEKSLSHSPGK light: not shown	2730 nM	156 nM	0.13 fold	1.63 fold
H237-MB600/MRAL-k0 (antibody, mouse IgG1, kappa, copies: 2 + 2) heavy: QVQLQESGPGLVKPSETLSLTCAVSGHSISHDHAWSWVRQPPGEGLEWIGFISYSGITNYNPSLQGRVTISRDNSKNTLYLQMNSLRAEDTAVYYCARSLARTTAMDYWGEGTLVTVSSAKTTPPSVYPLAPGSAAQTNSMVTLGCLVKGYFPEPVTVTWNSGSLSSGVHTFPAVLQSDLYTLSSSVTVPSSTWPSETVTCNVAHPASSTKVDKKIVPRDCGCKPCICEVPEESWVFIFPPKPKDVLTITLTPKVTCVVVDISKDDPEVQFSWFVDDVEVHTAQTQPREEQFNSTFRSVSELPIMHQDWLNGKEFKCRVNSAAFPAPIEKTISKTKGRPKAPQVYTIPPPKEQMAKDKVSLTCMITDFFPEDITVEWQWNGQPAENYKNTQPIMDTDGSYFVYSKLNVQKSNWEAGNTFTCSVLHEGLHNHHTEKSLSHSPGK light: not shown	1270 nM	171 nM	0.25 fold	1.24 fold
H237-MB601/MRAL-k0 (antibody, mouse IgG1, kappa, copies: 2 + 2) heavy: QVQLQESGPGLVKPSETLSLTCAVSGHSISHDHAWSWVRQPPGEGLEWIGFISYSGITNYNPSLQGRVTISRDNSKNTLYLQMNSLRAEDTAVYYCARSLARTTAMDYWGEGTLVTVSSAKTTPPSVYPLAPGSAAQTNSMVTLGCLVKGYFPEPVTVTWNSGSLSSGVHTFPAVLQSDLYTLSSSVTVPSSTWPSETVTCNVAHPASSTKVDKKIVPRDCGCKPCICEVPEESSVDIFPPKPKDVLTITLTPKVTCVVVDISKDDPEVQFSWFVDDVEVHTAQTQPREEQFNSTFRSVSELPIMHQDWLNGKEFKCRVNSAAFPAPIEKTISKTKGRPKAPQVYTIPPPKEQMAKDKVSLTCMITDFFPEDITVEWQWNGQPAENYKNTQPIMDTDGSYFVYSKLNVQKSNWEAGNTFTCSVLHEGLHNHHTEKSLSHSPGK light: not shown	3230 nM	389 nM	0.1 fold	0.55 fold
H237-MB617/MRAL-k0 (antibody, mouse IgG1, kappa, copies: 2 + 2) heavy: QVQLQESGPGLVKPSETLSLTCAVSGHSISHDHAWSWVRQPPGEGLEWIGFISYSGITNYNPSLQGRVTISRDNSKNTLYLQMNSLRAEDTAVYYCARSLARTTAMDYWGEGTLVTVSSAKTTPPSVYPLAPGSAAQTNSMVTLGCLVKGYFPEPVTVTWNSGSLSSGVHTFPAVLQSDLYTLSSSVTVPSSTWPSETVTCNVAHPASSTKVDKKIVPRDCGCKPCICTVPEESDVDIFPPKPKDVLTITLTPKVTCVVVDISKDDPEVQFSWFVDDVEVHTAQTQPREEQFNSTFRSVSELPIMHQDWLNGKEFKCRVNSAAFPAPIEKTISKTKGRPKAPQVYTIPPPKEQMAKDKVSLTCMITDFFPEDITVEWQWNGQPAENYKNTQPIMDTDGSYFVYSKLNVQKSNWEAGNTFTCSVLHEGLHNHHTEKSLSHSPGK light: not shown	2100 nM	255 nM	0.15 fold	0.84 fold
